Measured values as given in the NTF2 design screens of Basanta et al. (2020).

Assay: protease stability score; higher = more stable; yeast display proteolysis, trypsin and chymotrypsin;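 note: relative to predicted unfolded state with 0 unfolded-like and 1 meaning tenfold more protease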

Sequence | protease stability score
DEEEIEIRRIWERELHWRSTGDEKSLIELMDPRTIIEINGREIHGREEADRHVHEFAEKYKNVRVRYFVREIEVQGEFVHVHTEITLDFDGVEIRFFMILIILKIDGRWLSHRVIVH | 0.81
SDEDRLNYEIAKYLLDSLRTGDWHTFRRMADPHVKIRTVINGQELRMHGMEDLMERWKLLGFDHTRVHVEHIEIQGDKAHVRGTVKININGQEHTYETDLDVQIVNGRVESINFNWL | 1.14
DEDDNDMEEMVRLFDRDLHTGNEDLLTELADPHARFDINGVELHGMHEFVTIWLEIRFILRDSRVEHIHIQGDKAHIKSRLHGEMIFNGRTTIVHSEVHIYFEKIDGRWMIHRHIVK | 0.102
DDEEEIFKKAIEDFIRWERTGDWRQLVENLDPNTRVDVNGVYIHGRERIAEWIKHHIERVKNVKHHKHDEKVQGDKLHLDGVIIIDGVRFDVHLIIVVINGQYKHHEVRIR | 1.17
DEDRLREQATNFIEAMQTGDTKRVDEQIDKDAQLVVGEKKYEGREQISTFVKEMHHQFDHVRLQRVTVSGNKVLLDVVMDFNGKDLRINIVIHMNNGKISQVQVDYTNPEDAKTARG | 0.914
DEEKKEVNRIFELWARLFETGDEDSIHRLLDPNARLEVNGQEIHGRHNISRTFLEFKERFKGIKIELILREVRVIGDKVHIHSELRVNINGREESFETDIDLVVIDGKLHSFRFHVH | 2.48
SEEKKAWKLSLELHRRYVETGNEEDLIRFLDPHVRLEFNGQQYVGWEEVIRIMEELGFDVLKEIRLHSLDFQGEYVEVDGEVNGNINGRDRDHRIKFRMLKVDGKWLNHSVHVI | 1.36
SEDEEASKEMLERLIESIKTGDWRHDSNMVDPHARFRVGDKEFHGRDDLEHLVKHLGIKHVEVQHVRTYGNKMELHGWERFNGREVRVELHFVKIDGQWVLTEYRVR | 0.616
SEEEKFAERFIRLFMEALETGDERVLEELLDPNVRVEVNGREYHGRDVFTRLVREWRIDHLDTHTHRIDSQGDKVNADTRVRFHHKVGDKVHDTEMHVILHSEKFNGRWHMTEIIIR | 1.34
TEDEHDARLALHILLELLRTGDEDSLSKYIDPNVRNEVNGQDLHGRNTMERLLKHWRIEEVRVKDVRVQGDKVIMHGREVIRQGDYVIDQDVHWLLVKVDGRWLLHSIHFR | 0.918
DEKEEEMEIASELALHVWETGDPDEFLKLADPHVKIDFDGVDIHGMDKEHERWKRVKNLTMHIKRFSYQGDKVHLDVILIVNGRTETIHIIASKVNGRWLIKRVIINRR | 1.37
DELDRLMRHISKLWVELLLTGNEEITSHLADPDARLHINGRDTIGREEYIRMYHEWLNEIRIRDFHIHSIKTQGNKANTDSELDLEVNGKRLDLRITIIILNINGRMKSVKVEVI | 0.99
DETREHTEHIMNIILHALHTGDEHLIRDMIDPHVRWELIIDGQTHNHIGRDEWEKLLEELGIDRIEVILKRFRIFENHSEVKGTIHINGKDADVVIYILVINGKIKEIRIIHV | 2.19
DELEHIERRYWHLFVRALETGDEERLDRLVDPHARLDWNGREIVGREHLRHYLSHMRIVIEHHHIKDVNIQGEKIDSDIHLVLTMHVGDKDLEIRTDARSIHLKIDGKWLIESHKIK | 0.966
DEIERLLKEVMRIFYENFQTGDEESLKELADPNVRYQIGDKSDHGREHLWRVQHEVHRRMGIKHTHLLIKSVEIVDGVAVIHGSLRLDFDGRHIEWHLHLRLKLIDGKIKEVEHELV | 1.36
SEEERDAKEAVHLLLDMIDTGDFERITKYMDPNTRSRVGDKNDHGRHWLRHRRRHAGHDNIHVHLTRVDIFDGVVQINGRLDVDGKEIEVHWFIRKINGRWIVEEVHIQ | 0.367
SEDEQHLRRMLKVWDTAVKTGDEHLLDRLADPDVRIDINGVELHGREELERMLKQMRIEFEDSDLNHVHIQGDKIHADTEVVVIIIINGREERRRLRIESIVWKVNGRWHFKEFRFK | 1.4
THEQKLSHEITHIFWEILKTGDEHEMRRLADPNVQLEINGVERHGMHVLEHWLVHLGIDHLHVTDHRVQGEYSYWDTTLRVGDKERTIHLEVLAFNGRVKAFRLHVR | 1.22
EEEKKNRAHQFLKAVERGDPEELRKQFDPNAHARVGDKRYHGMEEWAKDVMRRVRELRMSIKRLSVDVQGNDVKVNMNLVINRNGKPKEFREVWYFKIHNGHFVELHVQEEP | 1.24
DEITHEIEHNLKLLLKAWETGDEHLLTEMIDPHDKIHIGDKTIIGRELRLEIEKRLGAKVVEVEIKRIEVQGDKILMHGTIHIEIGDKRFERESRFVAHKFNGRWHQKSLDII | 1.21
DEHDERMESVLRHLWHNWKTGDEDRLAELADPNTRTNINGKNFHGWEYMVREFSRFLKHIRIQDLKIRDFRVIDGRAISDVIVHGEVDGKDIDVKTRVELIIINGRFHTLSFTFE | 1.3
DEEEKEFEFAEQVLKESLLTGDERTLKELMDPHVRLEQGDKLYIGRESFIKWWSKRREELGINHLHYRIKEVHIVNGRVRVNSHIEIIIGDKRHEEKVHFVLLKINGRWLMESVHME | 1.46
DEVEKIVYDFLQRHIEHLLTGDEDSFTHNLDPHVRIHIDGQRLIGREDARREVRRLGFDHVEITKIEHQGEKLIVHGTMIINGQEIHLTIYIWKINGRWVVQSIEIK | 0.706
SEEDRDRHKALELIRESSRTGNEELTSRLADPHVRLVFNGRDVHGREEMVRYMHEFGIDHLHIDRLHVQGDKIHIEGSNDWNGVVTELHVLMVKVNGRWRIREVEWR | 1.23
DDEEEINRRIAETFINNVKTGDEHSMREMMDPNTRLIVGDKHNHGWKEVEKFWREWRRHAGVDHIHVDDVRVIGNKVEIDETINQGDKFRDVRISIITINGRITELRIEIR | 1.49

Sequence | protease stability score
HSDEEKSRRATKWFIKIFHTGDEDRFHELADPNTRVIIGDKDFIGREKAVDAIHRIWEHLGIDVYDVEDIRIINGVVEVDTSFHINGRTIKTTTRIEKVNGQWVVDEVHFK | 1.23
DEERELAKWAEEMLRRRFETGNERFWEELADPNTRSDINGVELIGRETVVHFLREEQRHMGVDHTDVKHTNVELQGDKVIVRMDVELHFDGVTVRSTLSYTSIKFNGRWILHSIEHHIH | 1.13
DEKEETIERLIRMLWHAWRTGDEDSLRNLFDPHAKLHVDGRDLVGMEMVYEDFHRQLNEWRINDLVIRTFRVQGDKIEIKGEIFGDINGRHTRHEVIIHIVVVDGRIKSLEVIND | 1.66
SEEDELMEEWRRLFIHSFLTGNEDELHRLIDPNARFIINGVNLHGWKALETKLRELGAKHIEVRERHEHRQGNKLELHVHIIIHQGDKDLREDVRIENEKVNGRWVVRTIEEK | 1.07
DEHEHQADHMQEILIRSHETGDEDLIREFFDPHARLDIGDKHNIGRESIKRFIHELLRILGLDNITLRVRHKTIQGDKIITHLELEVNGKRLEVIIHNEKINGQWSVRKVEWR | 1.98
DEEERHVRELLQRLINALDTGDWKTIHELFDPHARMEINGQHYHGRETINDKLKEMRVSVHDWEQKHIDTFEGHAVVHTHVHIVYIVNGVKHINDTREMIVFTKINGRWVIESRHVK | 0.563
SEEHETMNKLASDLIHDWLTGDWENTKELLDPHVKIDERVNGKNHQHHGREELVRILRERHEKIKGLRISIHHWEVINGRLHMDLRLHINGKTFSVEIHITIVDGRVKHIHVDIN | 1.22
DDDAIKRFHEQVDNEQHNNEEEQEKNVDPNATVNVGDKTYHGREKWREVVKRENEEMRVKYQHVTFRRHPGRVIVRFRIVNDHNGKPTETDVNANYQMHNGRIRQVNRRTDG | 0.225
SEEEQEAIENLHQYIEAIKTGDEDKLRDLFDPNAIIHFDGREIHGRHVFLKKLRHLWLDLKHFHIQHVEPYNGRVEIHGFQHTSVDIDGVRSRRDEHVLIEIIKINGKWKIKRIEWI | 1.68
SEEEREAQTFYEEWRENFRTGDFDRLHELMDPNARIHQGDKLIIGRQLLEHWRHRFKNIRVDFDLKHIEVQGEKIILRLHFEISIDGRTEHYDMIMIVHKVDGVWIVKSFTIK | 1.43
DEDDELKKTAVHDFTRDIATGDEESLHKLVDPHVRTTFDGQDLIGREHMWEHIHRLLRRYKNIRSEHIHIREIHVVDGVVESHTHIHMRIGEFKFIFNVHVFILKVDGVWFVHEAHYV | 0.886
DEEEEILRTFIRLMHEAWLTGDWKTFEEMLDPHARLHINGKDLHGREQMARRIEELGIKHVEDKDMETQGNKIHLKQIVYVNGRTFELRQFIIKVNGRWVIQHVEVITR | 1.38
SELEQMWREAKETIEKINKTGDPRSLLENADPTVRTDYGEKDYHGREEFKKFLEWLGIKHIKDVRFRDFEVQGDKIIHDSEVDVEVGDKEFRIKSIVIALKVDGRWLITRLVFK | 1.9
QDIDHQLERAVKEILETFITGDESLASHLFDPDVRVIQGDKHIHGREEVTKVFYEFVKRADHVEIRMREVESQGDIIDIETELILRIGDKEVRHRVRLIVVKYNGKWHIKSMEVD | 2.72
SEEEELARHSIEVMIRLYETGDWDSSVDMADPHTRVHINGRDLIGREFYSEWSKEHLKRYKNATIILEDHEVQGNKVKVRIRIIVGDKESEIIFYILKINGRWIWHTVEVR | 2.19
DKDEKETKDAIHILLHVARTGDERLLNTLFDPDVKLEVGDKSHHGRETITKVWKDWFHEWRIRDVTYHHVESQGDKIHVDLRIDGIFDGQRTHIESHNVLLKVNGQWLLRREVVH | 0.512
REDEEMAEKISEFIFHVLETGDEKSNHENIDPNARTHIGDKHSHGRENVTRMMDWWMHFLGVKHIEKKDLEIQGNFAFLHSISVVGDKTFEIDVTALKVNGQWVFKKFQVN | 1.64
DEERELYKRHWDRLNRAIHTGDEEEVRRLADPDYKIRIGDKTLHGREDIKKFLEHIRISVESFEIKDMHDIDGVIEVDGKVELRLVVDGRTFRIETRVVYYILKVNGRWLMHSEIYH | 0.82
HEDDELLRQNVKVLLDMVETGDEHTLENMLDPHVRFEAENHHHHGRENLIRALKELLTRLGVKHWRSFEVERIDIQGDFIFLDTVFIMEVDGRKRKIKIHIVARKINGRWLIESIRLD | 1.48
DDHDKLLQKLMRFWLWAFLTGDEDHFDEMADPNTRLSSIVNGRDIQLHGREQVNKHFKELRLHHFILRTWSVYDGRVEIDGQMDGEYDGRRIDTRVTIIIVIINGRSTREHLDFK | 0.261
DEHKELHERLLKMWLSIWETGDEERLRRNADPDTRFKHDFNGREETVVGRENVAKVLEDLRRELGIDHVHIRHFDVQGNYVDLTTELHFNGRIVNFHIIIRVVNGKLKEIHFELR | 1.26
SEEEDRIRQALELELHYLRTGDEDSTRRLIDPHMKLTVNGKEHHGMDWFIEELRRVDHIEMHPHHIHSFGEKAHIRVKLTLHFDGVTFERDVTIVFHKVDGRWVIESMQLD | 1
EEEQEDSEWATKLFIEVLETGDEHTSEHLADPDTRVEFNGKILHGREEWNKIVRKVKNARIHFDHIRVQGDKINVDTTVEVDGKRMKFHIISRKFNGVWFLQSIHIK | 2.07
SEKEELDQKFIEDYIRHLLTGDFESLTKMADPNVRLSIDGQNHHGRENFERFAFEWIEKYKNVRIHVRDVHVVDGQAHIIMTLDINGKTREVHIEVFIVNGRIKSNELRYR | 1.36
DEEDEVLKLAFEFIRHQLETGDEDTLNRYVDPHARFEVNGRDIHGRDRYNRFLEELYRKHGVEIKDVLLQDNKSQGDKIRIDIKINIDVNGREVNFDVHIIALKINGKWIHKRQIDI | 0.542
